Patent publication US9988424 (DUKE UNIVERSITY, dated 2018)

What was measured:
[1] = target: T1, AE.A244 gp120 delta 11 (HIV-1); test: ELISA
T1 construct: also called E.A244gp120Δ11; AE.A244 Δ11 gp120

[2] = target: AE.A244 V1V2 Tags (HIV-1); test: ELISA
[3] = target: C.CAP206 gp140CF.12 (HIV-1); test: ELISA, OD405 at 10 ug/ml
[4] = target: T2, C.1086 gp140; test: ELISA, OD405 at 10 ug/ml
T2 construct: also called C.1086gp140C

[5] = target: G.con gp140CF; test: ELISA, OD405 at 10 ug/ml
[6] = target: T3, AE.97CNG2XF gp140CF (HIV-1); test: ELISA, OD405 at 10 ug/ml
T3 construct: also called E.97CNGX2F gp140CF

[7] = target: T4, SIV CPZ US-1 gp140CF (SIVcpz); test: ELISA, OD405 at 10 ug/ml
T4 construct: also called US-1 SIVCPZ gp140CF
T4 chain: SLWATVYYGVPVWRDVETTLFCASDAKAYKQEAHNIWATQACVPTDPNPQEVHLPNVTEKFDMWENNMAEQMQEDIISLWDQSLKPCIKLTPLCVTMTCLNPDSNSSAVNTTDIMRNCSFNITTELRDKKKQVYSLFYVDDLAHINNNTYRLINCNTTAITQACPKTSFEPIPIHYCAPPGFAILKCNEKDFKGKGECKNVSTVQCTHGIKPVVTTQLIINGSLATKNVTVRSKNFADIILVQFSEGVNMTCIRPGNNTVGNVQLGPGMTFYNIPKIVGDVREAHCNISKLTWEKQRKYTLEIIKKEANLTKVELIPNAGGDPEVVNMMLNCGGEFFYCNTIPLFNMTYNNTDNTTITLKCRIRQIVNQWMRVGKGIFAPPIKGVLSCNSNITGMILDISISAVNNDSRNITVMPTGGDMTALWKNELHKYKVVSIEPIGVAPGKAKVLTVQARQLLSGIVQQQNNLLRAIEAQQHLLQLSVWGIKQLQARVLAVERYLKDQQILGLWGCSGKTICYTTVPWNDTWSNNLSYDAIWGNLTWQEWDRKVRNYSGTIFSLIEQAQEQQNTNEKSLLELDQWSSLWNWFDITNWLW

[8] = target: Con 6 gp120; test: ELISA, OD405 at 10 ug/ml
[9] = target: T5, gp70 C.1086 V1/V2 (HIV-1 V1V2 on murine leukemia virus gp70); test: ELISA, OD405 at 10 ug/ml
T5 construct: also called C.gp70 1086C V1V2; C.1086gp70V1V2
T5 chain: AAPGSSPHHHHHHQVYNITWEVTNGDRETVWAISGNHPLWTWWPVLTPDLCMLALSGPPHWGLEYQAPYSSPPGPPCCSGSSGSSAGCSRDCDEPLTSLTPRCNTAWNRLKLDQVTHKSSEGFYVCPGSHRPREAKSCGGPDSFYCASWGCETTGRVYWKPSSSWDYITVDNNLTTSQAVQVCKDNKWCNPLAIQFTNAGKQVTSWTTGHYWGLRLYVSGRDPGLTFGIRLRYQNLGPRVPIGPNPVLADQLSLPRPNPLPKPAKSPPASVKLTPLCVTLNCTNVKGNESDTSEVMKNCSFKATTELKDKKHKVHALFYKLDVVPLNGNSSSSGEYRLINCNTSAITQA

[10] = target: B.040 gp140C; test: ELISA, OD405 at 10 ug/ml
[11] = target: AE.con gp140CF; test: ELISA, OD405 at 10 ug/ml
[12] = target: T6, A.9004SS V1/V2 tags; test: ELISA, OD405 at 10 ug/ml
T6 V1V2 tags construct: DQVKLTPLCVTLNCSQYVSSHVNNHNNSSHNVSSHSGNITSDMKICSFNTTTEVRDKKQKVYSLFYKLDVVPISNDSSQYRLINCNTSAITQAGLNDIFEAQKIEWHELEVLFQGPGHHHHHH

[13] = target: B.con gp140CF; test: ELISA, OD405 at 10 ug/ml
[14] = target: T7, B.HXB/BAL gp140CFI (HIV-1, UniProt P04578 33-680); test: ELISA, OD405 at 10 ug/ml
T7 construct: also called B.HxB/Ba gp140 CFI

[15] = target: T8, gp70 B.CaseA2 V1/V2 (HIV-1 V1V2 on murine leukemia virus gp70); test: ELISA, OD405 at 10 ug/ml
T8 construct: also called B.gp70CaseA2 V1/V2; gp70 B.CaseAV1V2
T8 chain: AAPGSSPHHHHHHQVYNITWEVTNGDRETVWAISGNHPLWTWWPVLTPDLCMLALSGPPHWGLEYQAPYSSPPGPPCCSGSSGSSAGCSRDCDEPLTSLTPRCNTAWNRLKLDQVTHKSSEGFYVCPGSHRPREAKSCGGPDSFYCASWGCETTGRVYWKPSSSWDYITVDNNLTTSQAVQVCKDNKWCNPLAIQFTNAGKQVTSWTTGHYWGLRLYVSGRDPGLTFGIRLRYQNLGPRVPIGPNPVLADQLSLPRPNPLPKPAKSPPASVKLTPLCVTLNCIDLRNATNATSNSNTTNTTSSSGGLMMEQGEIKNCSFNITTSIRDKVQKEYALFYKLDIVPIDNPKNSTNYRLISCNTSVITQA

[16] = target: C.CAP206 gp140CF.12 (HIV-1); test: ELISA, OD405
[17] = target: T9, B.con gp140CF; test: ELISA, OD405
T9 construct: also called B.con.env03 gp140CF

[18] = target: B.040 gp140C; test: ELISA, OD405
[19] = target: B. 684-6 gp140C; test: ELISA, OD405
[20] = target: T10, B.Case A2 V1/V2 Tags; test: ELISA, OD405
T10 Env construct: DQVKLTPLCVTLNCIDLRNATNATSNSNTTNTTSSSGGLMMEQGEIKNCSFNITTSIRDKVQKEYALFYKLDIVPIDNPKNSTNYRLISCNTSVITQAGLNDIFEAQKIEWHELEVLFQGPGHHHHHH

[21] = target: T3, AE.97CNG2XF gp140CF; test: ELISA, OD405
[22] = target: T4, SIV CPZ US-1 gp140CF; test: ELISA, OD405
[23] = target: T11, C.1086 gp140; test: ELISA, OD405
T11 construct: also called C.1086gp140C

[24] = target: B.63521 gp140C; test: ELISA, OD405
[25] = target: T5, gp70 C.1086 V1/V2; test: ELISA, OD405
[26] = target: B.9021 gp140C (HIV-1); test: ELISA, OD405
[27] = target: T12, AE.con gp140CF; test: ELISA, OD405
T12 construct: also called AE.con.env03 gp140CF

[28] = target: T13, A.9004SS V1V2 Tags; test: ELISA, OD405
T13 Env construct: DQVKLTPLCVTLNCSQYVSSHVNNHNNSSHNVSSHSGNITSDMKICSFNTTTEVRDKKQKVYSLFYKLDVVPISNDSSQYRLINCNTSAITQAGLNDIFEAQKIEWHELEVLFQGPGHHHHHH

[29] = target: T14, D.9009SA V1V2 Tags; test: ELISA, OD405
T14 Env construct: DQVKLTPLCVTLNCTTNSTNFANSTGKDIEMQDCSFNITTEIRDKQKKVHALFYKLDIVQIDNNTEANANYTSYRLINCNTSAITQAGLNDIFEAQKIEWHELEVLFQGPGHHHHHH

[30] = target: T15, B.63521_V1V2 Tags; test: ELISA, OD405
T15 Env construct: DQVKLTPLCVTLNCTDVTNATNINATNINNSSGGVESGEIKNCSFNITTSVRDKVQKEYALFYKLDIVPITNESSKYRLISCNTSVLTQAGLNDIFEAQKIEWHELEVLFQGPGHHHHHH

[31] = target: Con 6 gp120; test: ELISA, OD405
[32] = target: T7, B.HXB/BAL gp140CFI; test: ELISA, OD405
[33] = target: B. 681-7 gp140C; test: ELISA, OD405
[34] = target: T16, B.62357 140C; test: ELISA, OD405
T16 construct: also called B.62357 gp140C

[35] = target: T17, G.con gp140CF; test: ELISA, OD405
T17 construct: also called G.con.env03 gp140CF

B1: CH01 UA3 (antibody, V domains shown)
VH: EVQLVESGGGVVRPGGSLRLSCAASGFTFDDYGMSWVRQAPGKGLEWVSGINWNGGSTGYADSVKGRFTISRDNAKNSLYLQMNSLRAEDTALYHCARGTDYTIDDQGIHYYGSGTYWYFDLWGRGTLVTVSS
VL: not shown
- EC50 [1]: 9.3 nM
- EC50 [2]: 18 nM
- binding result [3]: no binding (tested: 10 ug/ml)
- binding result [4]: no binding (tested: 10 ug/ml)
- binding result [5]: no binding (tested: 10 ug/ml)
- binding result [6]: no binding (tested: 10 ug/ml)
- binding result [7]: no binding (tested: 10 ug/ml)
- binding result [8]: no binding (tested: 10 ug/ml)
- binding result [9]: no binding (tested: 10 ug/ml)
- binding result [10]: no binding (tested: 10 ug/ml)
- binding result [11]: no binding (tested: 10 ug/ml)
- binding result [12]: no binding (tested: 10 ug/ml)
- binding result [13]: no binding (tested: 10 ug/ml)
- binding result [14]: no binding (tested: 10 ug/ml)
- binding result [15]: no binding (tested: 10 ug/ml)

B2: CH01_RUA1 (antibody, V domains shown)
VH: EVQLVESGGGVVRPGGSLRLSCAASGFTFDDYGMSWVRQAPGKGLEWVSGINWNGGSTGYADSVKGRFTISRDNAKNSLYLQMNSLRAEDTALYYCARGTDYTIDDQGIRYQGSGTFWYFDLWGRGTLVTVSS
VL: not shown
notes: also called CH01 UA 1; CH01_UA 1
- binding result [16]: no binding (tested: 10 ug/ml)
- binding result [17]: no binding (tested: 10 ug/ml)
- binding result [18]: no binding (tested: 10 ug/ml)
- binding result [19]: no binding (tested: 10 ug/ml)
- binding result [20]: no binding (tested: 10 ug/ml)
- binding result [21]: no binding (tested: 10 ug/ml)
- binding result [22]: no binding (tested: 10 ug/ml)
- binding result [23]: no binding (tested: 10 ug/ml)
- binding result [24]: no binding (tested: 10 ug/ml)
- binding result [25]: no binding (tested: 10 ug/ml)
- binding result [26]: no binding (tested: 10 ug/ml)
- binding result [27]: no binding (tested: 10 ug/ml)
- binding result [28]: no binding (tested: 10 ug/ml)
- binding result [29]: no binding (tested: 10 ug/ml)
- binding result [30]: no binding (tested: 10 ug/ml)
- binding result [31]: no binding (tested: 10 ug/ml)
- binding result [32]: no binding (tested: 10 ug/ml)
- binding result [33]: no binding (tested: 10 ug/ml)
- binding result [34]: no binding (tested: 10 ug/ml)
- binding result [35]: no binding (tested: 10 ug/ml)
